Measured values taken from patent US20190322720A1.

Columns and labels:
[1] = target: 16C3 antigen (CEACAM5 and/or CEACAM6) on tumor cells; experiment: flow cytometry, CFPAC-1 pancreatic cells
[2] = target: 16C3 antigen (CEACAM5 and/or CEACAM6) on tumor cells; experiment: flow cytometry, HT-29 colorectal cells
[3] = target: 16C3 antigen (CEACAM5 and/or CEACAM6) on tumor cells; experiment: rosetting assay, antibody-coupled beads on CFPAC-1 cells
[4] = target: 16C3 antigen (CEACAM5 and/or CEACAM6) on tumor cells; experiment: flow cytometry, LS174T colorectal cells
[5] = target: 16C3 antigen (CEACAM5 and/or CEACAM6) on tumor cells; experiment: flow cytometry, HT-29 colorectal cells; remark: listed apart in the source
[6] = target: 16C3 antigen (CEACAM5 and/or CEACAM6) on tumor cells; experiment: rosetting assay, h16C3-coupled beads on CFPAC-1 cells in the presence of 4B6 at 5 µg/ml
[7] = target: 16C3 antigen (CEACAM5 and/or CEACAM6) on tumor cells; experiment: flow cytometry, CFPAC-1 pancreatic cells; remark: listed apart in the source
[8] = target: 16C3 antigen (CEACAM5 and/or CEACAM6) on tumor cells; experiment: flow cytometry, LS174T colorectal cells; remark: listed apart in the source

B1: h16C3 (antibody, from a related filing, V domains shown)
VH: QVQLVQSGAEVKKPGASVKVSCKASGYTFTDYAMHWVRQAPGQRLEWMGLISTYSGDTKYNQNFQGRVTMTVDKSASTAYMELSSLRSEDTAVYYCARGDYSGSRYWFAYWGQGTLVTVSS
VL: DIQMTQSPSSLSASVGDRVTITCQASENIYGALNWYQRKPGKSPKLLIYGASNLATGMPSRFSGSGSGTDYTFTISSLQPEDIATYYCQQVLSSPYTFGGGTKLEIKR
- % Cell Staining [1]: 91.8%
- mean fluorescence intensity [1]: 91 mfi
- % Cell Staining [2]: 26.3%
- mean fluorescence intensity [2]: 44 mfi
- Rosetted cells (>8 beads) [3]: 53%
- % Cell Staining [4]: 69.4%
- mean fluorescence intensity [4]: 103 mfi
- mean fluorescence intensity [5]: 44 mfi
- Rosetted cells (>8 beads) [6]: 50%
- mean fluorescence intensity [7]: 91 mfi
- mean fluorescence intensity [8]: 103 mfi
